Earlier results on two substances are cited in article PMC4117426.

Where two headings read alike, the source gives them in different places.

Data set [1] addresses FtsZ tail peptide C-terminal tail (Escherichia coli) (UniProt P0A9A6).
For data set [2] the target is unchanged. The source holds these as a separate data set.

FtsA, sequence (P0ABH0 whole entry): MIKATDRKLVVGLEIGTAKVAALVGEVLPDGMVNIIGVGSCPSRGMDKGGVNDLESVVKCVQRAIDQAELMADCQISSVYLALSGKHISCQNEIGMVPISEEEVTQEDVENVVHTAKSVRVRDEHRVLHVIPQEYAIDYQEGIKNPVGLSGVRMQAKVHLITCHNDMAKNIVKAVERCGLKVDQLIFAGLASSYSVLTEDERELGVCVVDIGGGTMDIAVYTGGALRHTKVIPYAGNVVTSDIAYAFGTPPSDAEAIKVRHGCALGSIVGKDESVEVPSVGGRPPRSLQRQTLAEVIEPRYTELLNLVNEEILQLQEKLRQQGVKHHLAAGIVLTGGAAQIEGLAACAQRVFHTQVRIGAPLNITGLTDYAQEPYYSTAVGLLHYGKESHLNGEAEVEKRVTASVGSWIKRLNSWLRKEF

One may read the Kd as the concentration at which binding is half-saturated. On to FtsA (from UniProt P0ABH0), for which, in data set [1], the Kd was 50 µM.

For the substance ZipA (from UniProt P77173), the Kd in data set [2] was 20 µM.
